Data published in patent US20230266303A1, “SYSTEM” (GTINVENT LIMITED, priority 2020, published 2023).

What was measured:
[1] = system: dSH-SY5Y cells; assay: ReadyProbes cell viability assay (cell death) after exposure to dGAE; format: cell-based; settings: 24 h incubation; for percentage cell death: 1 μM, buffer only 21.6±1.6%
Experimental: (§1) Undifferentiated SH-SY5Y human neuroblastoma cells were grown in Dulbecco's Modified Eagle Medium/Nutrient Mixture F-12 (DMEM/F-12) supplemented with 10% Foetal Calf Serum (FCS), 1% Penicillin/Streptomycin (P/S) and 1% L-glutamine. For differentiation, SH-SY5Y cells were plated at a density of 50,000 cells per well in 24-well plates or 300,000 cells per well in 6-well plates. For immunofluorescence, cells were plated onto Menzel-Gläser coverslips (Thermo Scientific). For live-cell imaging, cells were plated on 35-mm dishes on a 1.5-mm coverslip (Mattek). On the first day of differentiation, media was replaced with low-serum culture media (DMEM/F-12 containing 1% FCS, 1% P/S and 1% L-glutamine) containing 10 μM all-trans retinoic acid (RA) (Sigma-Aldrich) and cells were incubated for 48 h. On day 3, this process was repeated with fresh RA and cells were incubated for a further 48 h. On day 5, the cells were washed once in serum-free culture media to remove traces of serum. […] Differentiated cells (dSH-SY5Y) were ready to use for experiments on day 7. […]
Following the addition of dGAE, cell viability was measured using ReadyProbes® Cell Viability Imaging Kit (Life Technologies). […] DAPI fluorescence was captured using a G 365 excitation filter and a LP 420 emission filter with a FT 395 dichroic. Green fluorescence was captured using a FITC filter set (BP 450-490 excitation filter, BP 515-565 emission filter and FT 510 dichroic). Identical acquisition settings were used for all replicates and images were analysed using FIJI. Six fields of view were taken per sample and an average of 4500 cells were analysed per condition. The proportion of buffer-treated cell death was quantified by converting the images to grayscale followed by manually adjusting the threshold and converting it into a binary image to highlight live DAPI-stained cells. The number of cells was automatically counted. The dead cells were counted in the same way and cell death was expressed as a percentage of buffer-treated cells. […]

[2] = system: dSH-SY5Y cells; assay: Internalisation of dGAE-488 into cells by confocal microscopy; format: cell-based, human; settings: soluble form, 5 μM dGAE-488, live confocal imaging t=0 h to 14 h
Experimental: as §1
FIJI (https://fiji.sc) imaging processing package (J. Schindelin et al., Nat. Methods, vol. 9, no. 7, pp. 676-682, (2012)) was used for all image analysis. For quantification of fluorescence intensities, images were Z-projected to maximal intensity. […] Area-integrated intensity and mean grey value were measured as well as three selections from around the cell with no fluorescence (background). The corrected total cell fluorescence (CTCF) was then calculated using the equation: […]
For quantification of internalised dGAE-488, a focal plane from the middle of the cell that contained maximal DAPI fluorescence was selected and subjected to analysis.
The uptake of soluble and aggregated dGAE into dSH-SY5Y cells was investigated in order to examine whether aggregation state affects the efficiency of internalisation. The labelled dGAE-488 form was used to permit uptake to be visualised and measured having corrected for total cell fluorescence. […]

## dGAE: recombinant truncated tau, 95 residues fragment of Tau (2N4R), Ile-297 to Glu-391, SEQ ID NO: 4
[1]; aggregated dGAE (100 μM agitated 72 h)
  percentage cell death: 34±2.9%
[1]; soluble dGAE (0 h, no agitation)
  percentage cell death: 24.1±1.2%
[1]; soluble dGAE up to 20 μM
  cell death on increasing concentration: no further increase in cell death
[2]
  incubation time at which internalised protein is detected in cells: ≤ 2 h
